Measurements reported in article PMC6677139.
Positions count from the first letter of the chain named. Names and notes keep the numbering of the source.

Legend:
Assay in all cases: purified protein
purified protein [1] = substrate: Nc1nc2nc[nH]c2c(=O)[nH]1; format: biochemical, Saccharomyces cerevisiae; details: 20 mM HEPES pH 7.5, 100 mM NaCl, 37 °C, zinc enzyme
purified protein [2] = substrate: Cn1c(N)nc2nc[nH]c2c1=O; format: biochemical, Escherichia coli; details: 20 mM HEPES pH 7.5, 100 mM NaCl, 37 °C, zinc enzyme
purified protein [3] = substrate: Nc1nc(N)nc(O)n1; format: biochemical, Escherichia coli; details: 20 mM HEPES pH 7.5, 100 mM NaCl, 37 °C, zinc enzyme
purified protein [4] = substrate: Nc1nc2nc[nH]c2c(=O)[nH]1; format: biochemical, Escherichia coli; details: 20 mM HEPES pH 7.5, 100 mM NaCl, 37 °C
purified protein [5] = substrate: Nc1nc2nn[nH]c2c(=O)[nH]1; format: biochemical, Escherichia coli; details: 20 mM HEPES pH 7.5, 100 mM NaCl, 37 °C, zinc enzyme

B1: Gud1 (Saccharomyces cerevisiae S288C) (protein)
chain: MTKSDLLFDKFNDKHGKFLVFFGTFVDTPKLGELRIREKTSVGVLNGIIRFVNRNSLDPVKDCLDHDSSLSPEDVTVVDIIGKDKTRNNSFYFPGFVDTHNHVSQYPNVGVFGNSTLLDWLEKYTFPIEAALANENIAREVYNKVISKTLSHGTTTVAYYNTIDLKSTKLLAQLSSLLGQRVLVGKVCMDTNGPEYYIEDTKTSFESTVKVVKYIRETICDPLVNPIVTPRFAPSCSRELMQQLSKLVKDENIHVQTHLSENKEEIQWVQDLFPECESYTDVYDKYGLLTEKTVLAHCIHLTDAEARVIKQRRCGISHCPISNSSLTSGECRVRWLLDQGIKVGLGTDVSAGHSCSILTTGRQAFAVSRHLAMRETDHAKLSVSECLFLATMGGAQVLRMDETLGTFDVGKQFDAQMIDTNAPGSNVDMFHWQLKEKDQMQEQEQEQGQDPYKNPPLLTNEDIIAKWFFNGDDRNTTKVWVAGQQVYQI
Q: Which Km (purified protein [1]) does the source give for B1 here?
A: Its Km is 0.061 ± 0.008 mM.

B2: EcGuaD (Escherichia coli K-12) (protein)
chain: MMSGEHTLKAVRGSFIDVTRTIDNPEEIASALRFIEDGLLLIKQGKVEWFGEWENGKHQIPDTIRVRDYRGKLIVPGFVDTHIHYPQSEMVGAYGEQLLEWLNKHTFPTERRYEDLEYAREMSAFFIKQLLRNGTTTALVFGTVHPQSVDALFEAASHINMRMIAGKVMMDRNAPDYLLDTAESSYHQSKELIERWHKNGRLLYAITPRFAPTSSPEQMAMAQRLKEEYPDTWVHTHLCENKDEIAWVKSLYPDHDGYLDVYHQYGLTGKNCVFAHCVHLEEKEWDRLSETKSSIAFCPTSNLYLGSGLFNLKKAWQKKVKVGMGTDIGAGTTFNMLQTLNEAYKVLQLQGYRLSAYEAFYLATLGGAKSLGLDDLIGNFLPGKEADFVVMEPTATPLQQLRYDNSVSLVDKLFVMMTLGDDRSIYRTYVDGRLVYERN
Q: With B2 as the protein, how does the Km (purified protein [2]) read?
A: Its Km is 0.93 ± 0.26 mM.

Q: What about the Km (purified protein [3]) of the same protein?
A: Its Km is 1.2 ± 0.2 mM.

Q: And the Km (purified protein [4]; zinc enzyme)?
A: The Km was 0.21 ± 0.04 mM.

Q: What about the Km (purified protein [5]) of the same protein?
A: Its Km is 1.0 ± 0.3 mM.

B3: EcGuaD (Escherichia coli K-12; A386S) (protein)
chain: B2 chain with A386S
Q: For B3, which Km (purified protein [4]) is on record?
A: Its Km is 0.14 ± 0.03 mM.

B4: EcGuaD (Escherichia coli K-12; W101H) (protein)
chain: B2 chain with W101H
Q: How did the Km (purified protein [4]) turn out when B4 was run?
A: Its Km is 0.08 ± 0.01 mM.

B5: EcGuaD (Escherichia coli K-12; F210A) (protein)
chain: B2 chain with F210A
Q: How did the Km (purified protein [4]) turn out when B5 was run?
A: Its Km is 0.21 ± 0.06 mM.
